Experimental data as given in the supplement of paper PMC10567573.

B1: EMD (parent)
chain: YQSKGYNDDYYEESYFTTRTYGEP
B2: MTMR15 (parent)
chain: YVKAKKSIDKDEEFAGSSPQSSKS

Variants of: B1
Test: protein stability index of a GFP-peptide fusion (GPS, HEK-293T) (PSI 1-6); higher = more stable
Conditions: c terminus: a fixed tail appended
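Note: lentivirally expressed fusions sorted by FACS into six bins by GFP to DsRed ratio, PSI derived from sequencing read proportions per bin multiplied by bin number.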

Protein stability index, by site and new letter:
G5: D 3.08 | Q 2.48 | T 2.52 | Y 1.89 | S 2.9 | I 2.18 | N 2.33 | L 1.82 | A 1.93 | C 1.95 | H 1.89 | K 2.22 | M 1.74 | R 1.97 | V 2.06 | E 3.1 | P 2.1 | F 2.33 | W 2.92
Y10: L 2.18 | C 2.47 | Q 2.67 | A 2.2 | F 2.11 | D 2.85 | G 2.49 | M 2.12 | V 2.82 | I 2.52 | T 2.5 | P 2.53 | S 2.65 | R 2.82 | K 2.44 | W 2.38 | N 2.64 | H 2.45 | E 3.04
N7: L 1.71 | D 2.62 | I 1.76 | G 2.13 | M 1.67 | S 2.47 | P 2.17 | W 3.23 | V 2.13 | T 2.14 | C 2.05 | K 1.94 | R 1.75 | E 2.87 | Q 2.14 | F 3.55 | H 2.18 | A 2.25 | Y 1.88
E13: H 1.47 | N 1.64 | Q 1.87 | P 1.74 | V 1.71 | W 1.83 | A 1.95 | K 1.67 | T 2.29 | C 1.53 | L 1.93 | M 2.68 | S 2.16 | G 2 | Y 1.91 | I 1.67 | R 1.82 | F 3.37 | D 2.42
Y15: N 3.06 | V 2.62 | F 1.69 | A 2.92 | M 2.42 | S 2.96 | T 2.8 | I 2.11 | Q 2.91 | D 3.64 | H 2.9 | E 3.41 | R 2.75 | G 2.96 | C 2.37 | L 2 | K 2.63 | P 2.35 | W 2.24
E12: I 2.38 | W 2.19 | A 2.19 | N 1.95 | R 1.73 | G 1.84 | K 2.33 | L 2.14 | D 2.57 | Y 1.79 | M 2.26 | V 1.71 | F 2.11 | H 1.52 | S 2.33 | T 2.2 | C 1.75 | Q 1.86 | P 2.12
T17: A 2.36 | D 3.19 | C 1.96
S3: F 2.25 | D 3.31 | M 2.38 | R 2.75 | K 2.75 | T 2.54 | G 2.18 | P 2.72 | V 1.95 | I 2.14 | L 2.17 | W 1.72 | C 1.95 | N 2.45 | Y 2.47 | H 2.42 | A 2.23 | E 3.25 | Q 2.43
D9: T 1.79 | A 1.44 | P 1.71 | V 1.85 | I 1.57 | Q 1.93 | Y 1.79 | R 1.96 | M 1.96 | W 2.68 | L 2.01 | H 1.89 | S 1.57 | C 1.18 | N 1.74 | F 2.44 | E 2.06 | G 2.7 | K 1.52
Y1: D 4.46 | L 2.92 | E 4.2 | T 3.7 | W 2.61 | G 3.8 | A 3.8 | M 3.22 | K 3.63 | Q 4.15 | R 3.48 | C 3.02 | I 3.2 | P 3.63 | S 3.67 | F 1.97 | H 3.76 | N 3.9 | V 3.67
D8: K 1.91 | Q 1.67 | L 2.37 | N 1.82 | E 2.13 | H 1.96 | G 1.65 | I 2.05 | S 1.92 | R 1.8 | W 2.85 | A 1.5 | C 2.62 | P 2.36 | M 3.87 | Y 1.72 | T 2.09 | F 2.13 | V 2.47
K4: T 2.38 | D 3.33 | H 1.97 | R 2.44 | L 2.06 | N 2.36 | Y 2.06 | Q 2.39 | A 2.36 | G 2.12 | M 2.32 | C 2.63 | E 3.46 | F 1.69 | P 2.5 | W 2.39 | I 1.98 | S 2.3 | V 2.54
Y6: A 3.26 | C 2.65 | P 3.3 | E 3.76 | N 3.16 | L 2.24 | R 2.56 | V 3.31 | Q 2.93 | F 2.4 | D 3.68 | K 3.05 | W 1.48 | T 3.34 | I 2.83 | S 3.77 | M 2.85 | H 2.82 | G 3.01
Y11: I 2.19 | L 2.38 | P 2.19 | W 1.87 | H 2.6 | T 2.94 | N 2.98 | S 2.8 | K 2.19 | R 2.66 | C 2.36 | V 2.34 | E 3.16 | M 2.51 | A 2.97 | D 3.29 | Q 2.8 | G 2.84 | F 1.68
Q2: T 1.99 | V 1.9 | E 3.62 | G 2.53 | Y 2.01 | N 3.11 | S 2.65 | M 2.36 | R 2.54 | L 2.5 | W 1.59 | D 3.5 | K 3.13 | H 2.03 | I 1.93 | F 1.93 | P 2.29 | C 2.12 | A 2.15
S14: A 1.88 | H 2.13 | V 2.19 | C 1.77 | D 2.44 | W 2.29 | L 2.08 | T 2.38 | G 2.37 | F 1.78 | N 2.35 | E 2.83 | K 2.16 | P 2.62 | Q 2.34 | M 2.26 | I 1.76 | R 1.9 | Y 2.28
F16: M 2.91 | K 3.15 | R 2.69 | C 3.12 | W 1.45 | E 3.64 | Y 2.28 | H 3.08 | L 3.38 | I 2.95 | S 2.88 | N 3.59 | P 3.19 | Q 3.1 | T 3.14 | V 2.85 | G 3.26 | A 3.2 | D 3.47

Variants of: B2
Test: as above
Conditions: c terminus: a fixed tail appended

Protein stability index of substitutions, site by site:
K23: P 3.94 | V 3.85 | Y 2.76 | R 3.4 | Q 3.32 | S 3.08 | W 2.58 | T 3.46
S24: L 2.71 | F 2.79 | K 2.58 | Q 3 | T 2.85 | W 3.03 | E 3.55 | H 3.33 | A 3.29 | C 3.13 | R 2.37 | D 2.94 | N 3.61 | I 3.19 | M 3.02 | V 2.33 | Y 2.83 | G 2.93 | P 3.02
